Experimental data from US20100003232.

What was measured:
[1] = molecular target: amyloid-β peptide (1-42) (UniProt P05067)
[2] = molecular target: secreted ectodomain of the amyloid precursor protein derivative generated by α-secretase (APPsα) (UniProt P05067)
[3] = molecular target: β-Amyloid (1-40) (UniProt P05067)
[4] = molecular target: Aβ produced naturally by APPswe.3 cells (secreted Aβ in conditioned medium) (UniProt P05067)
[5] = molecular target: Human insulin (UniProt P01308)
UniProt P01308, sequence (P01308 whole entry, looked up): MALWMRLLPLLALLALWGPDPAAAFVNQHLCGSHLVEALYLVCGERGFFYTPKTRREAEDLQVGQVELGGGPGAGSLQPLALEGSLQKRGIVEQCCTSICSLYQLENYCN

Substance | degradation followed by MALDI-TOF [1] | degradation in conditioned medium (Western blot) [2] | Hill coefficient [3] | Kcat [3] [s⁻¹] | t½ for the degradation of secreted Aβ [4] | degradation followed by MALDI-TOF [5] | Km [3] [µM]
IDE D426C/K899C double cysteine mutant | all three double cysteine IDE mutants degraded both insulin and Aβ(1-42) more effectively than wild-type IDE | IDE had no effect on the secreted ectodomain of the amyloid precursor protein derivative generated by α-secretase (APPsα) | 2.3 | 20 | that by the IDE D426C/K899C mutant was 2 minutes | all three double cysteine IDE mutants degraded both insulin and Aβ(1-42) more effectively than wild-type IDE | 
wild type human insulin-degrading enzyme (IDE) |  | IDE had no effect on the secreted ectodomain of the amyloid precursor protein derivative generated by α-secretase (APPsα) | 2.9 | 8 | The estimated t½ for the degradation of secreted Aβ by wild-type IDE was 11 minutes |  | 25
